Where “and” joins values, the source holds several entries; their conditions need not be identical. Equal entries are not always repeated.
Key:
SC-K^d -15 (mouse) [1] = target: SC-K^d -15 (mouse) (UniProt P01887); test: direct peptide binding assay, peptide coated at 30 µg/ml pH 9.6, 35S-labeled SC-Kd, input 10,000 cpm, duplicate
HLA-DR3 (human) [2] = test: direct peptide binding assay, peptide coated at 30 µg/ml pH 9.6, 125I-labeled HLA-DR3, input 200000 cpm, duplicate
HLA-DRw13 (human) [3] = test: direct peptide binding assay, peptide coated at 30 µg/ml pH 9.6, 125I-labeled HLA-DRw13, input 200000 cpm, duplicate
SC-K^d -15 (mouse) [4] = target: SC-K^d -15 (mouse) (UniProt P01887); test: direct peptide binding assay, peptide coated at 5 µg/ml pH 9.6, 35S-labeled SC-Kd, input 6000 cpm, no coated peptide 228 and 223, duplicate
[5] = target: K^d molecules isolated from the spleen of BALB/c mice (mouse) (UniProt P01887)
SC-K^d -15 (mouse) [6] = target: SC-K^d -15 (mouse) (UniProt P01887)
SC-K^d -15 (mouse) [7] = target: SC-K^d -15 (mouse) (UniProt P01887); test: direct peptide binding assay, peptide coated at 10 µg/ml pH 5, 35S-labeled SC-Kd, input 10,000 cpm, duplicate
HLA-DR3 (human) [8] = test: direct peptide binding assay, peptide coated at 10 µg/ml pH 5, 125I-labeled HLA-DR3, input 200000 cpm, duplicate
HLA-DRw13 (human) [9] = test: direct peptide binding assay, peptide coated at 10 µg/ml pH 5, 125I-labeled HLA-DRw13, input 200000 cpm, duplicate
SC-K^d -15 (mouse) [10] = target: SC-K^d -15 (mouse) (UniProt P01887); test: direct peptide binding assay, peptide coated at 10 µg/ml pH 9.6, 35S-labeled SC-Kd, input 6000 cpm, no coated peptide 228 and 223, duplicate
[11] = target: K^d molecules isolated from the spleen of BALB/c mice (mouse) (UniProt P01887); test: direct peptide binding assay, peptide coated at 10 µg/ml pH 9.6, 125I-labeled H-2K, input 100000 cpm, no coated peptide 1471 and 1595, duplicate
SC-K^d -15 [12] = target: T1, SC-K^d -15 (Mus musculus, UniProt P01887+P01902); test: Direct peptide binding assay, solid phase, with purified 35S-labeled SC-Kd; settings: for binding of peptide to SC-K^d -15 (in words): direct binding assay
T1 construct: connecting residue 276 of K^d heavy chain to the first residue of β2 -microglobulin through spacers; made in house
T1 sequence (P01902+P01887 with tags, fused parts or gaps): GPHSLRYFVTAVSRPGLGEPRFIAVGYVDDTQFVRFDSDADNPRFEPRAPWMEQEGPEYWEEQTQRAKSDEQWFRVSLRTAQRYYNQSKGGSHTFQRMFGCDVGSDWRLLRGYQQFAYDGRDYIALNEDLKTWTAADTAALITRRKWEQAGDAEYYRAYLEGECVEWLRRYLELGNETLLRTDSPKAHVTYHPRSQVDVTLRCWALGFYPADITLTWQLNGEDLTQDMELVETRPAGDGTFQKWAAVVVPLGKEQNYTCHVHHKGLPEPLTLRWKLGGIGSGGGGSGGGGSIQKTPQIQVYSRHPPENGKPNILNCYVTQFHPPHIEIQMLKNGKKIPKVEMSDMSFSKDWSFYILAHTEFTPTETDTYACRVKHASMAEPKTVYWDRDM
Protocol: (§1) Direct Peptide Binding Assay. Wells of microtiter plates are pretreated with 100 μl 2.5% glutaraldehyde in distilled water for 2 h at 20° C., washed with distilled water, and coated for 16 h at 4° C. with 100 μl of peptide diluted at 5 μg/ml either in carbonate-bicarbonate buffer, pH 9.6, or in PBS, pH 7.4 or pH 5.0. Remaining free sites are blocked by incubation for 2 h at 20° C. with BSA diluted 1% in PBS containing 0.05% Tween 20 (Tw) and 0.02% sodium azoture. After washing, purified ^125 I-HLA molecules (100 μl containing 1.5×10^5 cpm, 10^-9 M) diluted in PBS containing 1% BSA, 0.05% Tw, 0.02% sodium azoture, 1 mM PMSF, and 10 μg/ml trypsin inhibitor are added and incubated for 20 h at 20° C. After extensive washing, the radioactivity of each well is counted.
(§2) Inhibition Peptide Binding Assay. Concentrations of 0.1-100 μM of competitor peptides are incubated in tubes for 0-3 h at 20° C. with ^125 I-HLA (10^-9 M) diluted in PBS--BSA--Tw containing the protease inhibitors as mentioned above. […] After extensive washing, the radioactivity in each well is counted and the percent of inhibition is calculated.
(§3) COS-1 cells (usually 10^7 cells) were transfected with pSC-K^d -15 DNA, labeled and lysed as above. […] After the final wash in PBS, SC-K^d -15 was eluted from the matrix with an equal volume of 3M thiocyanate for 10 min on ice. After an overnight dialysis in PBS containing 0.1% NP40, 0.05% Tween and 0.2% BSA, SC-K^d -15 was used in direct binding test as below. Its purity was assessed by SDS-PAGE.
Peptides used in this study are described in Choppin et al. (Choppin, J., Martinon, F., Gomard, E., Bahraoui, E., Connan, F., Bouillot, F., and Levy, J.-P, J. Exp. Med., 1990. 172:889 and references therein), except for HLA-Cw3 and HLA-A24 described in Maryanski, J. Ll, Pala, P., Cerottini, J.-C, and Corradin, G., J. Exp. Med. 1988. 167:1391. Binding assays were performed as described in Choppin, J., Martinon, F., Gomard, E., Bahraoui, E., Connan, F., Bouillot, F., and Levy, J.-P, J. Exp. Med., 1990. 172:889. DR3, DRw13, and K^d molecules were also purified and iodinated as in Choppin, J., Martinon, F., Gomard, E., Bahraoui, E., Connan, F., Bouillot, F., and Levy, J.-P, J. Exp. Med., 1990. 172:889.
K^d molecules isolated from the spleen of BALB/c mice were then purified and iodinated. They were purified by affinity chromatography on a 20-8-4 mAb column and compared binding of peptides by the latter and by ^35 S-labeled SC-K^d -15 in the assay of Bouillot et al. (Bouillot, M., Choppin, J., Cornille, F., Martinon, F., Papo, T., Gomard, E., FournieZaluski, M.-C., and Levey, J.-P., Nature 1989. 339:473 and Choppin, J., Martinon, F., Gomard, E., Bahraoui, E., Connan, F., Bouillot, F., and Levy, J.-P, J. Exp. Med., 1990. 172:889).

SC-K^d -15 [13] = target: T1, SC-K^d -15; test: as above; settings: Table 10 (A), input 10,000 cpm, duplicates
HLA-DR3 = HLA-DR3 (Homo sapiens, UniProt P01903+P01911); test: Direct peptide binding assay with purified 125I-labeled HLA-DR3 (positive control)
Protocol: (§4) Direct Peptide Binding Assay. Wells of microtiter plates are pretreated with 100 μl 2.5% glutaraldehyde in distilled water for 2 h at 20° C., washed with distilled water, […] buffer, pH 9.6, or in PBS, pH 7.4 or pH 5.0. Remaining free sites are blocked by incubation for 2 h at 20° C. with BSA diluted 1% in PBS containing 0.05% Tween 20 (Tw) and 0.02% sodium azoture. […] After extensive washing, the radioactivity of each well is counted.

DRw13 = DRw13 (Homo sapiens, UniProt P01903+P01911); test: Direct peptide binding assay with purified 125I-labeled HLA-DRw13 (positive control)
Protocol: as §4

[14] = target: T2, K^d molecules isolated from the spleen of BALB/c mice (Mus musculus, UniProt P01902); test: Direct peptide binding assay with purified 125I-labeled conventional K^d
T2 construct: K^d molecules isolated from the spleen of BALB/c mice; from tissue
T2 sequence (P01902 22-368): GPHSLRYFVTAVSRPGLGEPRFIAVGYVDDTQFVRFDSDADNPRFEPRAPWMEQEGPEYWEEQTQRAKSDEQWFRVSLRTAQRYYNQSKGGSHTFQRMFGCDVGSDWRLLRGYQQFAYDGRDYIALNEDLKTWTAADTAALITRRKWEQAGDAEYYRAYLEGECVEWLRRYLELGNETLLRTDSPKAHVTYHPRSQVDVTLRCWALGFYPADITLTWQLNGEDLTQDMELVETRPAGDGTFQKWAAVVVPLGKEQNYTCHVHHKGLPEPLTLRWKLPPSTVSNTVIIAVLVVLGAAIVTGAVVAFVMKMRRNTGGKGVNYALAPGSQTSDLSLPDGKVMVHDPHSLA
T2 sequence (P01887 21-119 partner): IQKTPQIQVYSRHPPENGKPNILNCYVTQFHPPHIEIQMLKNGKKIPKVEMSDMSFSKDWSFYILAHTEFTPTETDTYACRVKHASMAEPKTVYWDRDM
Protocol: as §1
as §2, with “calculated. […]” for “calculated.”

mAb 34-1-2 = test: Immunoprecipitation of 35S-labeled SC-K^d molecules from transfected COS-1 cell extracts by mAb 34-1-2; format: binding
Protocol: as §3

[15] = Table 10 (A), input 200000 cpm, peptide 10 μg/ml, pH 5, duplicates

HIV 1 Env. 312-327 (peptide)
cpm bound (SC-K^d -15 (mouse) [1]): 750 cpm and 712 cpm
cpm bound (HLA-DR3 (human) [2]): 3780 cpm
cpm bound (HLA-DRw13 (human) [3]): 22600 cpm
cpm bound (SC-K^d -15 (mouse) [4]): 390 cpm and 377 cpm

HIV 1 Nef. 66-80 (peptide)
cpm bound (SC-K^d -15 (mouse) [1]): 475 cpm and 397 cpm
cpm bound (HLA-DR3 (human) [2]): 2320 cpm and 1820 cpm
cpm bound (HLA-DRw13 (human) [3]): 1390 cpm and 1290 cpm

HIV 1 Vpr. 68-80 (peptide)
cpm bound to coated env 312-327 in the presence of the competitor [5]: 359 cpm and 409 cpm
cpm bound to coated env 312-327 in the presence of the competitor (SC-K^d -15 (mouse) [6]): 42 cpm and 41 cpm
cpm bound (SC-K^d -15 (mouse) [7]): 710 cpm and 621 cpm
cpm bound (HLA-DR3 (human) [8]): 18600 cpm and 18200 cpm
cpm bound (HLA-DRw13 (human) [9]): 21800 cpm and 20600 cpm

HLA-A24 170-182 (peptide)
cpm bound (SC-K^d -15 (mouse) [10]): 284 cpm
cpm bound [11]: 1060 cpm and 1300 cpm

HLA-Cw3 170-182 (peptide)
cpm bound to coated env 312-327 in the presence of the competitor [5]: 15400 cpm and 15800 cpm
cpm bound to coated env 312-327 in the presence of the competitor (SC-K^d -15 (mouse) [6]): 367 cpm and 375 cpm
cpm bound (SC-K^d -15 (mouse) [10]): 169 cpm and 117 cpm
cpm bound [11]: 1340 cpm and 1380 cpm

IRIQRGPGRAFVTIGK [env 312-327]
35S-labeled SC-Kd bound to coated peptide (SC-K^d -15 [12]; Table 10 (B), input 6000 cpm, peptide 5 μg/ml, pH 9.6, duplicates): 390 cpm and 377 cpm
binding of peptide to SC-K^d -15 (in words) (SC-K^d -15 [12]): significant binding
35S-labeled SC-Kd bound to coated peptide (SC-K^d -15 [13]; peptide 30 μg/ml, pH 9.6): 750 cpm and 712 cpm

LFIHFRIGORHSR [vpr 68-80]
35S-labeled SC-Kd bound to coated env 312-327 in presence of the competing peptide (SC-K^d -15 [12]; Table 10 (B), competition, env 312-327 bound to plastic + labelled peptide as competitor, input 6000 cpm, duplicates): 42 cpm and 41 cpm
competition with env 312-327 peptide bound to plastic (in words) (SC-K^d -15 [12]; competition experiment, SC-K^d): competed efficiently
binding of peptide to SC-K^d -15 (in words) (SC-K^d -15 [12]): significant binding
125I-labeled HLA-DR3 bound to coated peptide (HLA-DR3; [15]): 18582 cpm and 18245 cpm
binding of peptide to HLA-DR3 positive control (in words) (HLA-DR3; direct binding assay): significant binding
125I-labeled HLA-DRw13 bound to coated peptide (DRw13; [15]): 21838 cpm and 20593 cpm
binding of peptide to DR213 positive control (in words) (DRw13; direct binding assay): significant binding
125I-labeled H-2K bound to coated env 312-327 in presence of the competing peptide ([14]; Table 10 (B), competition, env 312-327 bound to plastic + labelled peptide as competitor, input 100000 cpm, duplicates): 359 cpm and 409 cpm
competition with env 312-327 peptide bound to plastic (in words) ([14]; competition experiment, K^d): competed efficiently
35S-labeled SC-Kd bound to coated peptide (SC-K^d -15 [13]; peptide 10 μg/ml, pH 5): 710 cpm and 621 cpm

TYQRTRALVTG [NPR 147-158]
effect of added immunogenic peptide on immunoprecipitation of SC-K^d molecules (mAb 34-1-2): no effect

From patent US6011146A, “Altered major histocompatibility complex (MHC) determinant and methods of using the determinant” (Institut Pasteur, priority 1995, dated 2000)
